From IntAct's records for PubMed 25416956

B1: Forkhead box protein P3 (Homo sapiens), Q9BZS1 (parent)
chain: MPNPRPGKPSAPSLALGPSPGASPSWRAAPKASDLLGARGPGGTFQGRDLRGGAHASSSSLNPMPPSQLQLPTLPLVMVAPSGARLGPLPHLQALLQDRPHFMHQLSTVDAHARTPVLQVHPLESPAMISLTPPTTATGVFSLKARPGLPPGINVASLEWVSREPALLCTFPNPSAPRKDSTLSAVPQSSYPLLANGVCKWPGCEKVFEEPEDFLKHCQADHLLDEKGRAQCLLQREMVQSLEQQLVLEKEKLSAMQAHLAGKMALTKASSVASSDKGSCCIVAAGSQGPVVPAWSGPREAPDSLFAVRRHLWGSHGNSTFPEFLHNMDYFKFHNMRPPFTYATLIRWAILEAPEKQRTLNEIYHWFTRMFAFFRNHPATWKNAIRHNLSLHKCFVRVESEKGAVWTVDELEFRKKRSQRPSRCSNPTPGP
B2: Fructose-1,6-bisphosphatase 1 (Homo sapiens), P09467 (parent)
chain: MADQAPFDTDVNTLTRFVMEEGRKARGTGELTQLLNSLCTAVKAISSAVRKAGIAHLYGIAGSTNVTGDQVKKLDVLSNDLVMNMLKSSFATCVLVSEEDKHAIIVEPEKRGKYVVCFDPLDGSSNIDCLVSVGTIFGIYRKKSTDEPSEKDALQPGRNLVAAGYALYGSATMLVLAMDCGVNCFMLDPAIGEFILVDKDVKIKKKGKIYSLNEGYARDFDPAVTEYIQRKKFPPDNSAPYGARYVGSMVADVHRTLVYGGIFLYPANKKSPNGKLRLLYECNPMAYVMEKAGGMATTGKEAVLDVIPTDIHQRAPVILGSPDDVLEFLKVYEKHSAQ
partner: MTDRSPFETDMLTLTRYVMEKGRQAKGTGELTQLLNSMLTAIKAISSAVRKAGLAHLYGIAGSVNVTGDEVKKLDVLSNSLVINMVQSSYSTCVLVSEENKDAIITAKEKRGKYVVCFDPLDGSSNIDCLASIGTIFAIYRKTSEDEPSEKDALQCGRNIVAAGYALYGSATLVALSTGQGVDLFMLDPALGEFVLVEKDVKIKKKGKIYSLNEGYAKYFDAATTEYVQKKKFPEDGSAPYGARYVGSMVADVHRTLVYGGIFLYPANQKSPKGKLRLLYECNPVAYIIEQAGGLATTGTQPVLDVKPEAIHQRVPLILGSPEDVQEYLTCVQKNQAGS
B3: Keratin, type II cytoskeletal 2 epidermal (Homo sapiens), P35908 (parent)
chain: MSCQISCKSRGRGGGGGGFRGFSSGSAVVSGGSRRSTSSFSCLSRHGGGGGGFGGGGFGSRSLVGLGGTKSISISVAGGGGGFGAAGGFGGRGGGFGGGSSFGGGSGFSGGGFGGGGFGGGRFGGFGGPGGVGGLGGPGGFGPGGYPGGIHEVSVNQSLLQPLNVKVDPEIQNVKAQEREQIKTLNNKFASFIDKVRFLEQQNQVLQTKWELLQQMNVGTRPINLEPIFQGYIDSLKRYLDGLTAERTSQNSELNNMQDLVEDYKKKYEDEINKRTAAENDFVTLKKDVDNAYMIKVELQSKVDLLNQEIEFLKVLYDAEISQIHQSVTDTNVILSMDNSRNLDLDSIIAEVKAQYEEIAQRSKEEAEALYHSKYEELQVTVGRHGDSLKEIKIEISELNRVIQRLQGEIAHVKKQCKNVQDAIADAEQRGEHALKDARNKLNDLEEALQQAKEDLARLLRDYQELMNVKLALDVEIATYRKLLEGEECRMSGDLSSNVTVSVTSSTISSNVASKAAFGGSGGRGSSSGGGYSSGSSSYGSGGRQSGSRGGSGGGGSISGGGYGSGGGSGGRYGSGGGSKGGSISGGGYGSGGGKHSSGGGSRGGSSSGGGYGSGGGGSSSVKGSSGEAFGSSVTFSFR
B4: Keratin, type II cytoskeletal 2 epidermal (Homo sapiens), P35908 (parent)
chain: B3 chain
partner: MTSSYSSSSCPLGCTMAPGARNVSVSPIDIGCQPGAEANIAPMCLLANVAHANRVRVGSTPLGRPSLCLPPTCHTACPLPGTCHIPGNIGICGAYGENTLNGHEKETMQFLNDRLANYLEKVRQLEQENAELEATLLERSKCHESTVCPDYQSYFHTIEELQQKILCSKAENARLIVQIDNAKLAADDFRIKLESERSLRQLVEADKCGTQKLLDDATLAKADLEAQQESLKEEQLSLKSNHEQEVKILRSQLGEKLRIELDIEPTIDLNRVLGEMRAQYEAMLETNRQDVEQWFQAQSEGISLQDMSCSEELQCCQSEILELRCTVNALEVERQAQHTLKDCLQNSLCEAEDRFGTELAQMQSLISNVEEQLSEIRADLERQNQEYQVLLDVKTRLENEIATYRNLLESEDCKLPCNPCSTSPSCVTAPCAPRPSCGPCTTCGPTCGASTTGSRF
B5: X-linked retinitis pigmentosa GTPase regulator (Homo sapiens), Q92834 (parent)
chain: MREPEELMPDSGAVFTFGKSKFAENNPGKFWFKNDVPVHLSCGDEHSAVVTGNNKLYMFGSNNWGQLGLGSKSAISKPTCVKALKPEKVKLAACGRNHTLVSTEGGNVYATGGNNEGQLGLGDTEERNTFHVISFFTSEHKIKQLSAGSNTSAALTEDGRLFMWGDNSEGQIGLKNVSNVCVPQQVTIGKPVSWISCGYYHSAFVTTDGELYVFGEPENGKLGLPNQLLGNHRTPQLVSEIPEKVIQVACGGEHTVVLTENAVYTFGLGQFGQLGLGTFLFETSEPKVIENIRDQTISYISCGENHTALITDIGLMYTFGDGRHGKLGLGLENFTNHFIPTLCSNFLRFIVKLVACGGCHMVVFAAPHRGVAKEIEFDEINDTCLSVATFLPYSSLTSGNVLQRTLSARMRRRERERSPDSFSMRRTLPPIEGTLGLSACFLPNSVFPRCSERNLQESVLSEQDLMQPEEPDYLLDEMTKEAEIDNSSTVESLGETTDILNMTHIMSLNSNEKSLKLSPVQKQKKQQTIGELTQDTALTENDDSDEYEEMSEMKEGKACKQHVSQGIFMTQPATTIEAFSDEEVGNDTGQVGPQADTDGEGLQKEVYRHENNNGVDQLDAKEIEKESDGGHSQKESEAEEIDSEKETKLAEIAGMKDLREREKSTKKMSPFFGNLPDRGMNTESEENKDFVKKRESCKQDVIFDSERESVEKPDSYMEGASESQQGIADGFQQPEAIEFSSGEKEDDEVETDQNIRYGRKLIEQGNEKETKPIISKSMAKYDFKCDRLSEIPEEKEGAEDSKGNGIEEQEVEANEENVKVHGGRKEKTEILSDDLTDKAEDHEFSKTEELKLEDVDEEINAENVESKKKTVGDDESVPTGYHSKTEGAERTNDDSSAETIEKKEKANLEERAICEYNENPKGYMLDDADSSSLEILENSETTPSKDMKKTKKIFLFKRVPSINQKIVKNNNEPLPEIKSIGDQIILKSDNKDADQNHMSQNHQNIPPTNTERRSKSCTIL
partner: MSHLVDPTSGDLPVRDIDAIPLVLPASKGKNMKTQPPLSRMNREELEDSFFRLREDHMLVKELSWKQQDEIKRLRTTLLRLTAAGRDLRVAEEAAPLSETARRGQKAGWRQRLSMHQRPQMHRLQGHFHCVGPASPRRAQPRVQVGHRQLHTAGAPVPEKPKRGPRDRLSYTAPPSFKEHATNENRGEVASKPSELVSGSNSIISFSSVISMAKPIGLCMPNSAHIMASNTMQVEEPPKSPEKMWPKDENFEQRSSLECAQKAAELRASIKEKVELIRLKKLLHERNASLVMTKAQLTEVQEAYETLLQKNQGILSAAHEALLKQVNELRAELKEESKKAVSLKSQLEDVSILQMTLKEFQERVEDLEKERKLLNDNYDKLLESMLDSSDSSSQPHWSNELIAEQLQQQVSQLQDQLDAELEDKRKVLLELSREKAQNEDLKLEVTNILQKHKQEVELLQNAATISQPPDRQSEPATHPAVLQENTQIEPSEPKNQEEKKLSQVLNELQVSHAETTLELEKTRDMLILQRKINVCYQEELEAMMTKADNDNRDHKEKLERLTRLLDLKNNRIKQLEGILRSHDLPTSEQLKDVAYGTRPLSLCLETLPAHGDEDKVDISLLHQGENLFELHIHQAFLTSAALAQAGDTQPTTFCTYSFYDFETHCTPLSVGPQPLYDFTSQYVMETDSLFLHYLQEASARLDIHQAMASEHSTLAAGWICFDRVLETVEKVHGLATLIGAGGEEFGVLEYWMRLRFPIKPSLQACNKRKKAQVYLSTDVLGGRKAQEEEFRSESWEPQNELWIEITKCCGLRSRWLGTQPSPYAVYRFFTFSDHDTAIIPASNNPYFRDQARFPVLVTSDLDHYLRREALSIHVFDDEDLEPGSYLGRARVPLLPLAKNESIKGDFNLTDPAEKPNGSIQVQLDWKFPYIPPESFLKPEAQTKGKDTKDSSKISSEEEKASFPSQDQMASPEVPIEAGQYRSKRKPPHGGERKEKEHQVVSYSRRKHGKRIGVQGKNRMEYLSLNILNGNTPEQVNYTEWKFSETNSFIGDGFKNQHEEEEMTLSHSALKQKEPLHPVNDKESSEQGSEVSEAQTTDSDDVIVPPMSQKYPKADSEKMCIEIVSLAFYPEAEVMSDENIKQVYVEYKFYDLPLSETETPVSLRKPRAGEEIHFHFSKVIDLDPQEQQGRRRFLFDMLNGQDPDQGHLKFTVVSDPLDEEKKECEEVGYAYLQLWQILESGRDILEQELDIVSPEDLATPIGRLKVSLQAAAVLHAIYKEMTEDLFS

Variants of: B1
Details: with pr20c_human PRR20C
For Q70H, the “effect of a mutation on the interaction” value was “disrupting interaction”.

Variants of: B1
Details: with rbpms_human RBPMS
Q70H was tested, and the “effect of a mutation on the interaction” value was “disrupting interaction”.

Variants of: B1
Details: with pr20c_human PRR20C
Remark: another data set of the same source
In the case of I363V, the “effect of a mutation on the interaction” value is reported as “disrupting interaction”.

Variants of: B1
Details: with rbpms_human RBPMS
Remark: another data set of the same source
For I363V, the “effect of a mutation on the interaction” value was “disrupting interaction”.

Variants of: B2
Details: with FBP2, O00757
In the case of F194S, the “effect of a mutation on the interaction” value is reported as “disrupting interaction”.

Variants of: B2
Details: with FBP2, O00757
Remark: another data set of the same source
G260R was tested, and the “effect of a mutation on the interaction” value was “disrupting interaction”.

Variants of: B3
Details: with KRT19, P08727
Chain of KRT19, P08727 (P08727 whole entry): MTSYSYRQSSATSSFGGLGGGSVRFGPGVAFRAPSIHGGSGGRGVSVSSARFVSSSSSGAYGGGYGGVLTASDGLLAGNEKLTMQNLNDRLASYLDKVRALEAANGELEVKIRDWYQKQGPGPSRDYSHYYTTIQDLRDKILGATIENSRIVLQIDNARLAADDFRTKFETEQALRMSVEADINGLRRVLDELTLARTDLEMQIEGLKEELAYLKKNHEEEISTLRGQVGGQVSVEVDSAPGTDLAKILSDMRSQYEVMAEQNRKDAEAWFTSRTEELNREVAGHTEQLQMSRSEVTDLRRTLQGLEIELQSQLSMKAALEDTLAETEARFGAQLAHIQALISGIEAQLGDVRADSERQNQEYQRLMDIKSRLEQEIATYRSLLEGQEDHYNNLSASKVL
For I477N, the “effect of a mutation on the interaction” value was “disrupting interaction”.

Variants of: B4
Details: with krt38_human KRT38, O76015
For I477N, the “effect of a mutation on the interaction” value was “disrupting interaction”.

Variants of: B5
Details: with rpgr1_human RPGRIP1, Q96KN7
H98Q was tested, and the “effect of a mutation on the interaction” value was “disrupting interaction”.

Variants of: B5
Details: with rpgr1_human RPGRIP1, Q96KN7
Remark: another data set of the same source
T255I was tested, and the “effect of a mutation on the interaction” value was “disrupting interaction”.
